The target of this experiment is T1, FLAG-tagged full-length PU.1, purified (human, UniProt P17947 1-270).
T1 construct: PU.1 transcription factor, full length; also called FLAG-PU.1; purified PU.1; source: 293-ExpiF (Expi293TF) cells, transfected with pCAG, purified (FLAG M2 beads, anion exchange, size exclusion)
Put plainly: MST; SMARCD2 SWIFT domain and PU.1; Kd model fit. As to conditions: both partners purified.

B1: SMARCD2 SWIFT domain, purified from E. coli (domain or fragment, human)
chain: LTQKRKLRIYISNTFSPSKAEGDSAGTAGTPGGTPAGDKVASWELRVEGKLLDDPSKQKRKFSSFFKSLVIELDKELYGPDNHLVEWHRMPTTQETDGFQVKRPGDLNVKCTLLLMLDHQPPQYQHPDPIVINHVISVDPNDQKKTACYDIDVEVD
notes: SMARCD2, human, stretch of the SWIFT domain before the SWIB domain; the text gives aa185–312; also called SMARCD2 YEATS-like SWIFT domain; source: E. coli (pGOOD), purified
Broadly, the Kd is the constant that tells how readily two partners part at equilibrium. Higher therefore signals weaker binding. With B1, the Kd turned out to be 3.6 µM.

The values above are taken from doi:10.1101/2025.08.01.667725 (bioRxiv, 2025).
